Measured values: the supplement of paper PMC9170038

Test system: K4 kissing-loop RNA reporter
Assay: apparent KD of K4 kissing-loop reporter; higher = weaker reporter binding
Conditions: Eterna round: R107
Procedure: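 RNA-MaP round R107: designed RNA switches with theophylline, tryptophan, arginine or FMN aptamers are transcribed on-chip within common flanks. They are titrated with a labelled K4 kissing-loop RNA reporter in RNA-MaP buffer (100 mM Tris pH 7.5, 80 mM KCl, 4 mM MgCl2), without ligand or with the indicated ligand. Median apparent KD per design.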

[1] = input ligand: theophylline 20 uM
[2] = input ligand: tryptophan 2.4 mM
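Further: bound reporter read as fluorescence of individual clusters on recovered sequencing chips by microscopy, with normalized cluster intensities fitted with a binding model.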

Sequence | apparent KD of K4 kissing-loop reporter (input ligand: FMN 200 uM) | apparent KD of K4 kissing-loop reporter (input ligand: arginine 13.2 mM) | apparent KD of K4 kissing-loop reporter (input ligand: none) | apparent KD of K4 kissing-loop reporter [1] | apparent KD of K4 kissing-loop reporter [2]
GAAUGGAGUGAUGUUCCAUUAACGAUCCUACGAGGACCGGUACGGCCGCCACUCGUAUUGCAGUGAUGUUGCAACCAGCCGUACU [Exclusion Tryptophan A GF 9] | 111 nM | 113 nM | 114 nM | 111 nM | 102 nM
CCAUCGCUAUUCGAUACCAGCCAGGAGGUCUUUGGCCUCCUAUUGGAGUGAUGUUCCAUAGGCCCUUGGCAGCGAAUAGUGAUGG [Theophylline B K4 16] | 372 nM | 187 nM | 283 nM | 542 nM | 374 nM
UACUUUAAUUUAUAACUAUCUUUAUUUUGUCAGGAUAUCGUAUUGUCGAGAAGGGACUCUCUCAAGUGAUGUUUGAGAAAUCGUU [JR_SSFMNA_Sub024] | 84.8 nM | 125 nM | 115 nM | 133 nM | 87.9 nM
AAAAUAAAUAGCAGUCAUGGAGUGAUGUUCCGAGGACCGGUACGGCCGCCACUCGACCAUCAUAAGAUGGAAUGGCGAGACUGCA [#SwitchBubble 22 #K4Early] | 252 nM | 288 nM | 249 nM | 362 nM | 520 nM
CGGAUGUAGUGAUGUUAUAUUAGAUGUAGACGAGGACCGGUACGGCCGCCACUCGUAACGGCUGCUAGCGCGUUGCGAGGUGUGC [ExTryptoA.Cl] | 642 nM | 611 nM | 721 nM | 570 nM | 510 nM
GAUAUAGUGAUGUUAUAUGGGAAGGAGUUACGAGGACCGGUACGGCCGCCACUCGAAACGAGUGAGGAUUUGGGAGAUUGGGUUU [SSTryptA.R] | 369 nM | 386 nM | 376 nM | 488 nM | 235 nM
UGACAUUGCUCAGAUACCAGACAUGAGCAUCAGCCAUGUGCCAAACGUACAAUAAUAAAUGUCCCUUGGCAGCUGAGCAAUGUCU [TheoBX 14] | 74.2 nM | 33.1 nM | 53.1 nM | 100 nM | 44.8 nM
GCAGGACGAGGAGGAGGAUGAAUUACUGAAGGAGCGCAUAUUUUUGCAGGUAGGUCGCGGUAAACAAGUAUAGUGAUGUUAUAUC [SSArgA.N] | 445 nM | 234 nM | 372 nM | 459 nM | 442 nM
ACUAGAAAACCAGUGAUGUUGGCCUGGGAUACCAGCUUCUAUUAUAGCCCUUGGCAGCCCUUUAGUACAAGUGACCUUGCGACCG [theeternabot_sameState_KL_Theo_A_9] | 299 nM | 217 nM | 452 nM | 217 nM | 277 nM
UUGUUUAACUGAAGGAGCGGCAAUUGAUACGUAGAUAUAGUGAUGUUAUAUAAGAUAGAGAGCCAGGUAGGUCGCAGAGGUGUUU [ExArgB.R] | 231 nM | 227 nM | 246 nM | 219 nM | 190 nM
GCCGUAGAUUGAAGGAGCGCUAGUAGUGAUGUUGCUUGCACUUCUUGUGUAAGAAGAACCUAGCAGGUAGGUCGCAAUCUACGGC | 700 nM | 270 nM | 728 nM | 703 nM | 499 nM
UGAUAAAGCAGUGAUGUUGCAAGUAAUGAUACCAGUUAAGAAGAGAACCCUUGGCAGCAUAAAGUGCGCUCUAAUGAGUGUGCUU [whbob_SS_Theo_A_w51] | 82.9 nM | 138 nM | 103 nM | 169 nM | 91.3 nM
CCGCUACCCUCAGGAUAUUAAAUAUUAGUGAUGUUAAUAAACCGAUGGCGAAAGCCAUCGGUAUGUUAAGAAGGGAGGGUAGCGG | 138 nM | 847 nM | 974 nM | 949 nM | 965 nM
AUUAAUUUCAGAGGAUAUCGUAAUUUUAUUUAAUUUAUUCAUUUGUGCAGUGAUGUUGCUAAUAUUCGAGAAGGCUGAUUUAUAA [whbob_Ex_FMNB__2th223] | 142 nM | 159 nM | 70.8 nM | 171 nM | 65 nM
GAUUCAGUGAUGUUGGAAGGCGAGCGGGAUACCAGCCAAGACUCAGGCCCUUGGCAGCCCACAUAUCCCACGUAGAUAGUAGCUC [Same State - Theophylline A (Freestyle 13)] | 230 nM | 104 nM | 147 nM | 134 nM | 142 nM
GAAUAAUAUGUACCAGUGAUGUUGGUACAACGAGGACCGGUACGGCCGCCACUCGGAUACGAGUGGAUACAUCACUGACCAUUCG [(H1)-(H2)-(Trp1)-(Trp2)-(T)'-(H)'-(T)''_Design9] | 326 nM | 308 nM | 368 nM | 413 nM | 252 nM
GGCCAAAGAGAGUGAUGUUCUCAAUAUGAAGGAGCGCCCGAAAGGGCAGGUAGGUCGCAUAACGGCCACCUACGAAAAGUAGGAA [#SwitchBubble 4 #K4Early] | 91.3 nM | 96.6 nM | 94.5 nM | 109 nM | 96.5 nM
UGCUGUCAAUAAGAUACCAGUUGGACUGAGUGAUGUUCAUCCAUUAUAUCUAUUCUGCUUAACCCUUGGCAGCUUGAUGACGUUU [theeternabot_exclusion_KL_Theo_B_6] | 174 nM | 149 nM | 180 nM | 191 nM | 182 nM
CCGCCGGUCGGAAGGAGCGCACGCCAGAGUGAUGUUCUGGCGCAGGCAUUUAGUGCCCGCGUGCAGGUAGGUCGCCGAUUCUGGC [Arlaaa] | 341 nM | 310 nM | 423 nM | 234 nM | 270 nM
AAGUGAUGUUGUAGUGAUGUUGUGAUGUUGCAGGAUAUAUAGUGAUGUAGAAGGGUAAGGACUGUUUUUUUUUUUGAGUGAUGUU [ookooyzrmullin] | 94.2 nM | 41.4 nM | 70.5 nM | 56.8 nM | 73.3 nM
UGGAUAUAGUGAUGUUAUAUAGAGAUGGAUACCAGCAAAGAGAAUUGCCCUUGGCAGCCGAAAGAAGUAUCAUUAGAGAAGAAUG [ExTheophyl.Af] | 285 nM | 221 nM | 278 nM | 277 nM | 206 nM
UCGCAAAAGUCGGCCGCCACUCCGGGCCCUAUAAAUGGGCGCAGUGAUGUUGCGGCUAGGCCUCUGAGGACCGGGACUUUGUAGC [Tixelequ] | 221 nM | 119 nM | 58.9 nM | 142 nM | 156 nM

Sequence | apparent KD of K4 kissing-loop reporter (input ligand: FMN 200 uM) | apparent KD of K4 kissing-loop reporter (input ligand: arginine 13.2 mM) | apparent KD of K4 kissing-loop reporter (input ligand: none) | apparent KD of K4 kissing-loop reporter [1] | apparent KD of K4 kissing-loop reporter [2]
AUUUUUUUAUCAGGAUAUUAGUGAUGUUUGUUUUUGUUAGUGAUGUUGAUAUUUGUUUUAUGUAUUUAAGAAGGGAUUGAGAUGU [sfsmullin] | 46.4 nM | 15.5 nM | 28.2 nM | 19.9 nM | 42.4 nM
GGUGUUGUUUGUGCUGUUUUCUUUGUUUCUCGAGGACCGGUACGGCCGCCACUCGAGUGAUGUUUGGGUAGCGAUGUUUGUUAGU [Bdazzled - #2 - Exc. Tryptophan A] | 463 nM | 280 nM | 355 nM | 383 nM | 411 nM
GGCAUCCAUGGACCUAGUGAUGUUAGGUACCGAGGACCGGUACGGCCGCCACUCGGCCAUGGAUGCCGCAAUCGGAAACGAUUGC | 406 nM | 243 nM | 408 nM | 460 nM | 345 nM
CAGCAUCUGAGUGGUAGCCAUUGAGAGAUGCAGGAUAUCUGGAAACAGAGAAGGGCAGUGAGUGAUGUUCACGGCUGGCUUGGUU | 154 nM | 132 nM | 179 nM | 133 nM | 110 nM
CCUUCUCUUGAUAGUGAUGUUGUCAAGGGCAAGGAUAUCAUCUUAAUGAGAAGGUGUCCUUGAUAACAUGGAGGUCUGAAACAGA [Omei KL FMN A Exc C v7] | 123 nM | 305 nM | 301 nM | 380 nM | 375 nM
UGUUUUUACUGAAGGAGCGGCAAUUGAUACGUAGAUAUAGUGAUGUUAUAUAAGAUAGAGAGCCAGGUAGGUCGCAGAGUGUUUC [ExArgB.aA] | 250 nM | 195 nM | 194 nM | 194 nM | 172 nM
AGGACGGUUAUGGAUACCAGUCCGGAACUUGUCCAUGGAGUGAUGUUCCGUCCAGCUCCGGACCCUUGGCAGCCAGACUGCUGAA [theeternabot_sameState_KL_Theo_B_41] | 185 nM | 189 nM | 192 nM | 138 nM | 198 nM
AAAAUAACCCAGUGAUGUUGGUAUGCAGAUACCAGCGACGAAAGUCGCCCUUGGCAGCUGUGGACGUACAAAAUAAGUACGUCCU | 1230 nM | 834 nM | 1420 nM | 1220 nM | 1520 nM
GGCGGCCGCGCGCAAGCGCGGCCGGCCGAUACCAGCGCGACGGCGCGCCCUUGGCAGCGGCGCCGAGUGAUGUUCGGCCUGCCGU [#2 Same State - Theophylline A Attempt #15 (HarryS)] | 151 nM | 81.1 nM | 146 nM | 94.2 nM | 96.4 nM
AGUACAAUGGCGGCCGCCACUCAACGCAGAUCAAAGAUCUGCAUUCACUCAGUGAUGUUGAGUGAGAGGACCGGGCCUUUGUACA [Omei KL Tryp B SS B v1] | 701 nM | 581 nM | 637 nM | 580 nM | 189 nM
AAGCGUAAAAUGGCGGACAUACUGCUCCCACGAGGACCGGUACGGCCGCCACUCGAAUGCGGCAGUGAUGUUGCCGCCUUCGCGU [Zauslereed] | 74 nM | 68.3 nM | 62.8 nM | 69.9 nM | 62.5 nM
AAGUCAUAGGCAGGAUAUGCAUAGUAAUAAGGCAAUAUCUACGUAUAGAGUGAUGUUUUGUACCAGGCAGAAGGGCUACAUCAGU [FMN B Excl V9 (+4A/C)] | 635 nM | 407 nM | 514 nM | 554 nM | 424 nM
CCUAUCUCUUACGAUACCAGUCAAUGAUAUUUUAUCAAUGCCCUCACCGAGUGAUGUUCGGACCCUUGGCAGCGUCUGGGAUAGG [pvppimullin] | 223 nM | 170 nM | 212 nM | 190 nM | 191 nM
GUGGAAUUAUGAAAGUGGUUUUAUUAGGAAGGAGCGGCCGAAAGGCCAGGUAGGUCGCCUAUUGACAGUGAUGUUGUUAUAUGGU [#14] | 158 nM | 199 nM | 151 nM | 204 nM | 94.3 nM
UGUUAUGUAUCAGGAUAUUAGUGAUGUUUGUUUAUGUUAGUGAUGUUGAUAUUUGUUUUAUGUAUUUAAGAAGGGAUUGAGAAGU [ffcfxmullin] | 62.1 nM | 21.4 nM | 45.6 nM | 30.2 nM | 49.3 nM
GGAUAGGAUAGAGGAUAUGGACUAGGCAAGAAUAACUUGUCUAGUAAAUCCAUGAGGAGUGAUGUUCCAGAAGGCUGUCCUAUCG [MatMod 3 - Jieux - Exclusion - FMN B] | 514 nM | 200 nM | 226 nM | 224 nM | 185 nM
AGUCCACUCUAAAGAGUGGACCUAAGGGAUACCAGUGAUGUUGGUCACCCUUGGCAGCCCGCUGUCAUCGAUAAAGAUGGCAGUA | 125 nM | 107 nM | 112 nM | 121 nM | 117 nM
CUGCCGUGCCAUGGGCCAGUGAUGUUGGAACGAGGACCGGUACGGCCGCCACUCGCUUAGCGUCAAAGGCGUCCCGAAUAGAAAG [theeternabot_exclusion_KL_Trp_A_14] | 374 nM | 230 nM | 340 nM | 317 nM | 374 nM
GUACGCUCUCGAGUGAUGUUCGGUAAUCGCUAGGAUAUCGCUUUUGCGAGAAGGAGCGGAAUGAGGAAACUCGUUCUGAGUGUAC [FMN A 22] | 452 nM | 295 nM | 447 nM | 325 nM | 476 nM
GGUAGCAUGGCGGCCGCCACUUCAUAUGGAGUGAUGUUCCAGCAUCUUAUAAGACUGAGGUGAGGAAGGACCGGGCCAUGCUACC | 635 nM | 561 nM | 577 nM | 615 nM | 189 nM
CAAACGGGUUGGCUUGGAGACUGCAGACGCAAGGAUAUCGCGAAGACGAGAAGGUGCGGGCCUGGUAGUGAUGUUACAGUUUGGU [theeternabot_sameState_KL_FMN_A_21] | 358 nM | 326 nM | 395 nM | 367 nM | 254 nM
AGGUCACUACUACAGUGAUGUUGUGGAGAGCAGGAUAUGCAGAAAUGCAGAAGGGCUCGCUCUCAGUGACCGAAUGAAACAUUCA [Omei KL FMN A SS A v8] | 663 nM | 724 nM | 712 nM | 566 nM | 838 nM
